Measurements: patent US20090181027A1 (published 2009)

Columns and labels:
[1] = target: IL-12 (mouse; target of the rat anti-mouse mAbs C17.8 and C18.2) (mouse) (UniProt P43432); assay: cell-based or functional assay
[2] = target: T1, human p40 single mutant S43R (human, UniProt P29460 23-328); assay: capture assay, relative binding affinity to p40 muteins (FIG. 4)
T1 construct: Transiently expressed in HEK293E cells; supernatant used
T1 sequence: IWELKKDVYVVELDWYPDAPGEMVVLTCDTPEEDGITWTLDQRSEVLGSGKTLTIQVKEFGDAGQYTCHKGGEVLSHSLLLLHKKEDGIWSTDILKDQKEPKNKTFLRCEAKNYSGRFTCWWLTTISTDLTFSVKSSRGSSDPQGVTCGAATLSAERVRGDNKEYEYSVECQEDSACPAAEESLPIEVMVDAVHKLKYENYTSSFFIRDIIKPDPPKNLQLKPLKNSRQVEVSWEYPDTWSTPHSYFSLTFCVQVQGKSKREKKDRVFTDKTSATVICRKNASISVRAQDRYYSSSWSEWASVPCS
Method: (§1) Seven human p40 single mutants, M23T, L40T, S43R, E45A, E45R, E59R, and D62R, and two double mutants, S43R/E45A and S43R/E45R, are used in the studies. The wide-type human p40, WT hu-p40, was used as the control. The p40 mutants were transiently expressed in HEK293E cells. The supernatants were used for binding assays.
(§2) In brief, MSD high bind plates (Meso Scale Discovery, MD) were coated with 5 μl of a capture monoclonal antibody (5 μg/ml) at room temperature for 1 hour. […] One-hundred and fifty (150) μl of 5% MSD Blocker A buffer was added to each well and incubated for 1 hr at room temperature. Plates were washed three times with 0.1 M HEPES buffer (pH 7.4). These protein-charged ELISA plates were incubated with 25 μl of different transiently expressed p40 mutant supernatants (1:10 dilution with 0.1 M HEPES buffer, pH 7.4) for 1 hr at room temperature. The plates were washed three times with 0.1 M HEPES buffer (pH 7.4). Twenty-five (25) μl of different concentrations of MSD Sulfo-TAG labeled p40 mAb, ranging from 0 to 20 μg/ml, were dispensed to micro-wells. After incubation for 2 hrs shaking at room temperature, plates were washed 3 times with 0.1 M HEPES buffer (pH 7.4). One hundred and fifty (150) μl of diluted MSD Read Buffer T was dispensed into each well and the plates were analyzed with a SECTOR imager (MSD).

[3] = target: T2, human p40 single mutant M23T (human, UniProt P29460 23-328); assay: as above
T2 construct: Transiently expressed in HEK293E cells; supernatant used
T2 sequence: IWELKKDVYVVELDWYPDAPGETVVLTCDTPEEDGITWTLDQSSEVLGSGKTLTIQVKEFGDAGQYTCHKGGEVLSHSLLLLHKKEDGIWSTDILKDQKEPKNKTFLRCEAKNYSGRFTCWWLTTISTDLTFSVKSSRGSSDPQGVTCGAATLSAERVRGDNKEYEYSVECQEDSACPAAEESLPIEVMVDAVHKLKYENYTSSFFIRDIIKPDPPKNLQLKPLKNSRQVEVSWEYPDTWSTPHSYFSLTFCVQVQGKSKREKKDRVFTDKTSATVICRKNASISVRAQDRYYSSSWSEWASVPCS
Method: as §1, §2

[4] = target: T3, human p40 single mutant E45A (human, UniProt P29460 23-328); assay: as above
T3 construct: Transiently expressed in HEK293E cells; supernatant used
T3 sequence: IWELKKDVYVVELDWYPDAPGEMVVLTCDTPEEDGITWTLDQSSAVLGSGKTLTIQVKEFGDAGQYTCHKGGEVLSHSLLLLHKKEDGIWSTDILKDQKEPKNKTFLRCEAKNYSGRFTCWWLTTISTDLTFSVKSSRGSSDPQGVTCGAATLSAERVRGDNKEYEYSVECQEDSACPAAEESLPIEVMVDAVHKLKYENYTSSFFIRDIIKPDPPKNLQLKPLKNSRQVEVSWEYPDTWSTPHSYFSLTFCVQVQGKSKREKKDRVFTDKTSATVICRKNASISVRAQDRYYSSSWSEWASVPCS
Method: as §1, §2

[5] = target: T4, human p40 single mutant L40T (human, UniProt P29460 23-328); assay: as above
T4 construct: Transiently expressed in HEK293E cells; supernatant used
T4 sequence: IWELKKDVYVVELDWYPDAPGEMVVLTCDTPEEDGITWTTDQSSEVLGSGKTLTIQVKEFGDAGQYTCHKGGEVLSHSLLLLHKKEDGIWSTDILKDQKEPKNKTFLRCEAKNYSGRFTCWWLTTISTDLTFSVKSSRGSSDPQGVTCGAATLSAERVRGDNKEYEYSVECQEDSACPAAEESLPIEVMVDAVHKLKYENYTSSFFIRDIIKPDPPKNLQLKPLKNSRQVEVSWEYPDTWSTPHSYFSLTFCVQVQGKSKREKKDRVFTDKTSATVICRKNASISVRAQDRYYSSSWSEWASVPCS
Method: as §1, §2

Sequence of IL-12 (mouse; target of the rat anti-mouse mAbs C17.8 and C18.2) (mouse) (P43432 23-335 limits assumed, chain 1 of 2): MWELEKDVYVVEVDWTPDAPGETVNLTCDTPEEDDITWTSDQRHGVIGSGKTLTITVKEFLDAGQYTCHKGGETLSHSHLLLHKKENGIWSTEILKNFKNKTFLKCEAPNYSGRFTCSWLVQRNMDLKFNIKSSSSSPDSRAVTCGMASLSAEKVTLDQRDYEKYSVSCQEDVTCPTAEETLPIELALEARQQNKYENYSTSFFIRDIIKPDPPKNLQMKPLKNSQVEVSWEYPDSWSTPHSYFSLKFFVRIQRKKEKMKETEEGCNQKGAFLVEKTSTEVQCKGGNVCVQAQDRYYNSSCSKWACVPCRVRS
Sequence of IL-12 (mouse; target of the rat anti-mouse mAbs C17.8 and C18.2) (mouse) (P43431 23-215 limits assumed, chain 2 of 2, further chain): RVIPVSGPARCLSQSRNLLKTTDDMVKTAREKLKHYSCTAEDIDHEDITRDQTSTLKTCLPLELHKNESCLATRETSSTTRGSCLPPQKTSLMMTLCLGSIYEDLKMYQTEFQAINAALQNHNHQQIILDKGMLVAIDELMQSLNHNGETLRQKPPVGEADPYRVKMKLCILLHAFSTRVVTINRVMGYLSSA

For “C17.8 (rat anti-mouse IL-12/IL-23p40, IgG2a) (antibody)”, which in vitro neutralization of IL-12, relative to the anti-p35 mAb (C18.2) (times (versus anti-p35 mAb)) [1] is on record?
Its in vitro neutralization of IL-12, relative to the anti-p35 mAb (C18.2) (times (versus anti-p35 mAb)) is 5.

B1: IL-12/IL-23p40 mAb (fully human monoclonal antibody directed against human IL-12/23p40) (antibody, V domains shown)
VH: EVQLVQSGAEVKKPGESLKISCKGSGYSFTTYWLGWVRQMPGKGLDWIGIMSPVDSDIRYSPSFQGQVTMSVDKSITTAYLQWNSLKASDTAMYYCARRRPGQGYFDFWGQGTLVTVSS
VL: DIQMTQSPSSLSASVGDRVTITCRASQGISSWLAWYQQKPEKAPKSLIYAASSLQSGVPSRFSGSGSGTDFTLTISSLQPEDFATYYCQQYNIYPYTFGQGTKLEIKR
notes: Whole IgG made in a mammalian cell line and purified on protein A; also called IL-12/23p40 mAb; IL-12p40 antibody
What does the source list for B1?
reduction of binding [2]: ~40%; reduction of binding [3]: ~40%; reduction of binding [4]: ~70%; reduction of binding [5]: ~40%
